Data from US20250325468A1 (MEDYTOX, published 2025).

Target: SNARE complex including SNAP-25, syntaxin and VAMP2 (endogenous, in PC12 cells) (rat (PC12 cells, derived from rats), UniProt P60881 1-206; P32851 1-288; P63045 2-116)
Test: cell-based or functional assay

SNARE complex including SNAP-25, syntaxin and VAMP2 (endogenous, in PC12 cells), sequence (P60881 whole entry, chain 1 of 3): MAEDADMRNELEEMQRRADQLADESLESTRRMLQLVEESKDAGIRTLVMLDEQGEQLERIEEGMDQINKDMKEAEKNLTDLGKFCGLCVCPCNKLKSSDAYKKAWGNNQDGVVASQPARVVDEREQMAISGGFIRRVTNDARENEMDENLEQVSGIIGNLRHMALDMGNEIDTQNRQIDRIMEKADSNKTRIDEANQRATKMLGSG
SNARE complex including SNAP-25, syntaxin and VAMP2 (endogenous, in PC12 cells), sequence (P32851 whole entry, chain 2 of 3): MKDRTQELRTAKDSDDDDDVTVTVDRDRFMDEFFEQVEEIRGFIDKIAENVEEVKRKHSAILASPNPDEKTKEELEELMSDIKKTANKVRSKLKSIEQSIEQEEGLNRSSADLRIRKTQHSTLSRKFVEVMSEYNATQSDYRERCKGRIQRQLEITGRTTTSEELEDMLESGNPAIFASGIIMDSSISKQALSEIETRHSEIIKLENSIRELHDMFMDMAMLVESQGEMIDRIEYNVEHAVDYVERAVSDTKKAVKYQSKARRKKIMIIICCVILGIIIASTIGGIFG
SNARE complex including SNAP-25, syntaxin and VAMP2 (endogenous, in PC12 cells), sequence (P63045 2-116, chain 3 of 3): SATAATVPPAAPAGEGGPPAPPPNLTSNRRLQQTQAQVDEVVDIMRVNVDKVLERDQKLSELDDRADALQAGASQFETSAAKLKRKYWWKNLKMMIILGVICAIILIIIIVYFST

Binder: RRLQQTQAQVDEVVDIM [P4 peptide, h-VAMP2 (30-46 aa)]
- neurotransmitter (norepinephrine) secretion rate in PC12 cells compared to an untreated group, peptide at 20 µM: 75%

Binder: RRWRRWNRFNRRRCRRRLQQTQAQVDEVV
- neurotransmitter (norepinephrine) secretion rate in PC12 cells compared to an untreated group, peptide at 20 µM: 56%
